Measurements as given in the nanobody polyreactivity screen of Harvey et al. (2022).

Assay: yeast display, Sf9 membrane polyspecificity reagent, FACS + sequencing; frameworks hold sequencing errors
Summary of the method: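 Nanobodies from a synthetic yeast display library (Saccharomyces cerevisiae BJ5465), induced 36–48 hours with galactose, were stained 1 hour at 4 °C with 10% biotinylated, detergent-solubilized Sf9 membrane reagent, enriched on streptavidin microbeads, then FACS-sorted. Anti-HA (expression) and streptavidin (reagent binding) fluorescence set low and high (top ~1%) gates. Polyreactivity labels come from the gate of origin. Genes were colony-PCR amplified, MiSeq 2 × 250 sequenced and filtered by CDR length.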

Row | Sequence | polyreactivity (PSR sort gate)
1 | QVQLVESGGGLVQAGGSLRLSCAPSGRTFLAYAMGWYRQAPGKEREVVAAISSSGSTTYYADSVKGRFTISRDNAKNTVYLQMNSLKPEDTAVYYCAASNGYRSSYYRYDYWGQGTQVTVSS | low polyreactivity
2 | QVQLVESGGGLVQAGGSLRLSCAASGRTLKTYVMGWYRQAPGKERELVAAITSGGRTYYADSVKGRFTISRDNAKNTVYVQMNSLKPEDTAVYYCNAQLYWSRSWYLFDNTSFDYWGQGTQVTVSS | low polyreactivity
3 | QVQLVESGGGLVQAGGSLRLSCAASGFIFGGYAMGWYRQAPGKERELVAAISWSGDNTYYADSVKGRFTISRDNAKNTVYLQMNSLKPEDTAVYYCAADSYGQEYDYWGQGTQVTVSS | low polyreactivity
4 | QVQLVDSGRGLFQAGGSLRLSCAASGRTSSSNVMGWYRQAPGKERELVASINEGGNTYYADSVKGRFTISRDNATNTVYLQMNSLKPEDTAVYYCATEESGYSSWYGYGYSYDYWGQGTQVTVSS | low polyreactivity
5 | QVQLVETGGGLVQAGGSLRLSCAASGSTFTRYGMGWYRQAPGKERELVADITTSGSSTYYADSVKGRFTISRDNAKNTVYLQMNSLKPEDTAVYYCAADWSSWGFDYWGQGTQVTVSS | low polyreactivity
6 | QVQLVESGGGLVQAGGSLRLSCAASGIIFVKNAMGWYRQAPGKVRELVAAISRSGARTYYADSVKGRFTISRDNAKNTVYLLMNSLKPEDSAVYYCNKVVRYGHTRKIDTESDYWGQGTQVTVSS | high polyreactivity
7 | QVQLVESGGGLVQAGGSLRLSCAASGRTFSYYAMGWSRQAPGKERELVAAMSWNGGSTYYADSVKGRFTISRDNAKNTVYFQMNSLKPEDTAVYYGAAAFYYYGDYDYWGQGTQVTVSS | low polyreactivity
8 | QVQLVESGGGLVQAGGSLRLSCAASGSIFEQYTMGWYRQAPGKERELVAAISRRSGRTYYADSVKGRFTISRDNAKNTVYLQMNRLKPEDTAVYYCNTVYYGNFYSTRYDYWGQGTQVTVSS | high polyreactivity
9 | QVQRVESGGGLVQAGGSLRLSCAASGYIFKYYAMGWYRHSPGKVRELVAAITGGVSTNYADSVKGRFTISRDNAKNTVYLQMNSLKPEDTAVYYCAAAITPSYTGSEYDYWGQGTQVTVSS | low polyreactivity
10 | QVQLVESGGGLVQAGGSLRISCAASGSTFAYNAMGWYIQAPGKERELVAVISKGGGRTYYADSVKGRFTISRDNAKNTVYLQINSLKPEDTAVYYCAARYIPVYTREREYNYWGQGTQVTVSS | high polyreactivity
11 | QVQLVESGGGLVQAGGSLRLSCAASGITFFYNAMGWYRQAPGKERELVADITNSGSTYYADSVKGRFTISRDNAKNTVYLQMNSLKPEDTAVYYCAAGQAYDYFVYYPDDYWGQGTQVTVSS | low polyreactivity
12 | QVQLVESGGGLVQAGGTLRLSCAASGITLKLYVMGWYRQAPGKERELVAAISRRGGSTYYADSVKGRFTLSRDNAKYTVYLQMISLKPEDTAVYYCAKDGTQYERKDPAYGYWGQGTQVTVSS | high polyreactivity
13 | QVQLVESGGGLVQAGGSLRLSCAASGSTFGRYAMGWYRQAPGKERELVAGISRGGTTYYADSVKGRFTISRDNAKNTVYLQLNSLKPEDTAVYYCAKLRWPVFDYWGQGTQVTVSS | high polyreactivity
14 | QVQLVESGGGLVQAGGSLRLSCAASGITIDYYAMGWYRQAPGKERELVAAISSVGNTNYADSVKGRFTISRDNAKNTVYLQMNSLKPEDTAVYYCAARAYGQRLYRVWSGYGYWGQGTQVTVSS | high polyreactivity
15 | QVQLVESGGGLVQAGGSLRLSCAASGFTFSYYAMGWYRPAPGKERELVAAITSGGSTYYADYVKGRFTISRDNAKNTVYLQMNSLKPEDTAVYYCNADGWYYPTDDYWGQGTQVTVSS | low polyreactivity
16 | QVQLVESGGGLVQAGGSLRLSCAASGIIFDTNAIGWYSQAPGKERELVATITQRGGTTYYADSVKGRFTISRDNAKNTVYLQMNSLKPEDTAVYYCNAGPVRLPYDSWGQGSQVTVSS | low polyreactivity
17 | QVLLQESGGGLVQAGVSLRLSCAASGNIFSAGGMGWYRQAPVNERELVAGIGTGTSTNYADSVKGRFTISRDNAKNTVYLQMNSLKPEDTAVYYCAAAYYSGLSHWYWGQGTQVTVSS | low polyreactivity
18 | QVQLVESGGGLVQAGGSLRLSCAASGSNIYPNAMGWYRQEPGKEREFVAVISSGGSTYYADSVKGRFTISRDNAKNTVYLQMNSMKPEDTAVYYCAADRGTVSFLYSPRAVDYWGQGTQVTVSS | low polyreactivity
19 | QVQLVESWGGLVQAGGRLRLSCAASGRIFWRYAMGWYRQAPGKERELVAAISGRGASTYYADSVKGRFTISRDNAKNTVYLQMNSLKPEDTAVYYCAASLRYRYRYYASDYGYWGQGTQVTVSS | high polyreactivity
20 | QVQLVESGGGLVQAGASLRLSCAASGRTFRYYDMGWSRQEPGKEREFVAAITWRGGSTYFADSVKGRFTISRDNAKNTVFLQMNSLKPEDTAVYYCATDSLRLYGGKRDLYFWGQGTQVTVSS | low polyreactivity
21 | QVQLVESGGGLVQAGGSLRLSCAASGSTFTYYAMGWYRQAPGKEREFVATIRRSGGRTNYADSVKGRFTISRDNAKNTVYLQMNSLKPEDTAVYYCNARYTNVRGFDYWGQGTQVTVSS | high polyreactivity
